Results as given in the DeepSol protein solubility set.

Test: soluble on expression in E. coli; label from the status in PepcDB or PDB records

Sequence | soluble on expression in E. coli
MISIIIPAFNEERRIGRTLEKISSTLPNAEIVVVFDGHDNTPEVVKKFPVKLLISESRLGKGGAIKRGINESNFQRVLLLDADFPITEEELDKILSTDADLVIPKRKIVGMPLKRKFLHKGFIIITKILFPSLAKFSDFQAGVKLVNREKVLDILDELIINDFLFDVNLIYGFKRRHYKVKEVEINYIHDESDSKISKKLIKVIILMFLSLIKLRVYYSPFRKILYTKTYLKAQDYILRKLRLEHHHHHH | not soluble
MAHHHHHHMGIVRSRLHKRKITGGKTKIHRKRMKAELGRLPANTRLGARRVSPVRARGGNFKIRALRLDTGNFAWASEAIAHRVRLLDVVYNATSNELVRTKTLVKNCIVAVDAAPFKRWYAKHYGIDLDADKKSTKAAVAAEKKGRKSAHAAADKYDVNKASPKLQREWTRRRRNHRVEKAIADQLREGRVLARITSRPGQSGRADGILLEGAELQFYLKRLEKKKK | soluble
GKKQEPYEQVTIDVEEQHQGSVMEALGIRKGEVRDMLPDGKGRVRLEYIIPSRGLIGFRGDFMTMTSGTGLLYSSFSHYDEIKGGEIGQRKNGVLISNATGKALGYALFGLQERGKLMIDANIEVYEGQI | not soluble
GPGSMTVRRMFCFLLPPPSHHRLSRSSLAHAHLPHIRMSAHFAQCRSTHVHTYTHTHVHTHDTLARAACRLCTSSPPVRAREMALLAPKALHKRVKGTNVEVRKEVTDDNTDAQLALLYSIHADDETELRWLHNTLRPERNLVHPSDAFLHGIKALHPAAVFNTFDVKKAKLRRLTKYEKDKETAMKRRKKEVAPTAAYKAAVNPHKTPRTGGAAPADEVRVLSRGMNKAQKARSRTRTAHKSGKVVNGAEAPKGFFTKWKKRKLEKIGRGL | soluble
LPAFFKTFDRQEDFMVDVFRLNIDALKENYLPLARFFENLNENTGNESSVILETSKSGMPNFRVKKGEHTFFVHSPYDPRTEAIRWAEKIDLKGFDTIAVLGIGCGYHIEELEKKYPDKNKIVIEPDRNVFLKLLNTRDITHLISSKNILFIISDNTEEIAKVFLLLREEGEIDSVEFNELLSYRKVYEDWWLELKKEYIKFARLHQINTNTSVFFAEAWLTNLFEGMWQLTKSVHIKEYKSAFANIPAIVVSAGPALNKNVHLLKELYNKAVIISAGSALNILESRGITPHIMVGVDGGEAESRIFNNVKSNEIYFAYSLSVHYDGLKNYSGPKIYFKTNVLGYGDWIDEKLGIEGAENLRSGSSVSNLSLDIARYMGCNPIIVIGQNLSFPNLESYADGAVLKQEQDRHIQQCVENSNKYYVLEKDIDGNDVYTTHSMLSIRFYFEEYIKNHPDRLYLNGSEEGLPIKGMKNMPLKEIVEKYCTKEYDIKGILDKKFKEEFEAENVKAKEIKIRRILEDIHKESTEIRQKAIKRIDLILDILSNIRGSHNDKWEEIDRLTDEIESSDLYKYFVEPLSKYFIQAVKNERERKMESIPDIQERLKYLYEGLLIQYVEVKDKIVLIDDLSQKIIENIDKKEATKCLSMV | soluble
MARKHIYIAYTGGTIGMKKSDHGYVPVAGFMEKQLASMPEFHRPEMPLFTIHEYDPLMDSSDMTPADWQLIADDIAANYDKYDGFVILHGTDTMAYTASALSFMFENLGKPVIVTGSQIPLADLRSDGQANLLNALHVAANYPINEVTLFFNNRLMRGNRSRKSHADGFSAFSSPNLPPLLEAGINIELSTNVKVDEKPSGEFKVNPITPQPIGVITMYPGISHEVIRNTLLQPVNAMILLTFGVGNAPQNPELLAQLKAASERGVIVVNLTQCLAGKVNMGGYATGCALADAGVISGYDMTPEAALAKLHYLLSQNLSYEEVKAKMQQVLRGEMTL | soluble
VAKKKRKLKVIPLGGLGEIGKNITVFEYGDDIFVVDCGIAFPEDDMLGIDLVIPDISYLTKNREKVRGIVLTHGHEDHIGALPYVLKDLNVPVYGTKLTLGLLEQKLEEHGLLNNVVLNVVKHSDVIELGCFKVEFIRSTHSIADSTALAIFTPVGTIFHTGDFKIDYTPIEGEPIDLARLAELGKKGVLLLMCDSTNVEREGYTMSEKTVGETFDEIFMNAKNRILVATFASNVHRIQQIVNAAIKFGRKIAICGRSMVNVVNVAMELGYMNVPEGLIIDIDHINKYPPEKIVIITTGSQGEPMSALTRMASGDHKKVEIIPGDLVIISANPIPGNEKLVSRVVNDLFKKGAEVIYESLADIHVSGHASQEELKLIHRLIRPKYFMPVHGEYRHLKRHANLAVELGMSPENIFIMDIGKVLELTNDSAKINGSVNAGRVLVDGLGVGDVGNIVLRDRKHLSQDGLIVVVITIEGDTGNVIAGPDVISRGFVYVRESEDLMEEIREVCKAALQKCNDKKKNDWSTKKSIIRDALRDFLYERTKRRPMILPIIMEV | soluble
MGSDKIHHHHHHMSDARGAFHSKGRWSRMALPAILCAGLLVGCGAEPPAEEHVRVLAQTVKMAEFASATSITGDIQARVQADQSFRVGGKIVERLVDVGDHVAAGQVLARLDPQDQRSNVENAQAAVAAQQAQSKLADLNYQRQKALLPKGYTSQSEYDQALASVRSAQSSLKAAQAQLANARDLLSYTELRASDAGVITARQAEVGQVVQATVPIFTLARDGERDAVFNVYESLFSHDVDGQRITVSLLGKPEVTASGKVREITPTVDERSGTLKVKVGLDSVPAEMSLGSVVNASVAAPAEHSVVLPWSALSKVGEQPAVWLLDQQGKARLQPVRVARYASEKVVIDGGLEAGQTVVTVGGQLLHPGQVVEVAQPPQPTQSTASRDAVGGGQP | not soluble
MNNQTILIIGAAGNNGMATIESLVSKQPKDTIVAAVRSTDKATLLKKKFPSIKTVIIDLDKPETLTAAYEGVTKVFMIPGNVEEREQHAKNAIDAAVQAGTVKQFLFYSVVGAEYEAILFAQQFRAGEKYLEQSGLNWTHLRTIFFQDNFFGWADGVKQGGLYFGIREGSFAPLNVADIGEMAANILTTSGHEHKAYNITGSELLSGEEMAKVFTDVTGKTVAYISPTKQQTLDSLLSTGWPQWQAEGMLELFEVFATNQAAVVSPDGEQLLGRPLTTLKDFIASNKAAFV | not soluble
MAHHHHHHMKRAAKGEVVFDEDIRRLCDKGVNNLPGWSLAAAEVKAAVRNSTKHFLDAAAEEARNPTTTSAPEKLEGCYKSVHNARRGHAVELPDGVERTKTGTGMGMHEGRPEQSWSYKKADDAIEKNDGVQQFGAAPPVLMVLTLDKGWPYSWNRIQDLPKDVFVNCEVDRVWQTVKGDVTAWFSPHGGTDFTPKQRVLIGTPGIGKSMAAGSYLLYQLLHCDAKKLQVVVHRFGGGDAYVSDKITRAVTKYSDEDMCISELRRLRGYGRNVYIIYDVAKEGTPPPRHFAPTSGWGMIVVSFPKVTNYDEWEKQLHAARIIMNCPDESDVRAMCIWKEYNGQVEEEADYWKKVKDRMDKVGPILRFIFDN | not soluble
MGSDKIHHHHHHMSSSSLSSTSTRVTYAVGDFVYFDDTSATDAPYQIRKIEELVKTEKGGVDARCVVYLRRRDIPQHLLKIADQAQRRFDNYYEVDKKKPENFTTKGFIVVNGASEAAPEAAPEATEASAETSETKVKEDTDDVAEKMEEDEECPAPVGQGRTSSTEEPSASDAPAATAKDKKEEKEAKENAKNLKETAEAEATKLIDWGDGGLPLGVDKLTPDQRLKLRQHEIFMTRQSEILPAAAIRGKCRVVLLGDGEEAQNYLPLDDTFYHSLVYDPNAQTLLADK | not soluble
MSLRVIDGGVTAPKGFKANGYKEGKFGVAIIISEKDAVGAGTFTTNKVVAHPVVLSRELIKNRDKFRAIVANSGNANCFTKDGMEDAKEMQRLVAELFNINEDEVLVASTGVIGRKMDMNIIKDRINKVYNLIKEGNSSINAAKAIMTTDTKPKEIAVEFEVNGKTVRVGGIAKGAGMIAPNMLHATMLCFITTDIEIDKESLTNILQKVVDKTFNNISVDGDTSTNDTVFVLANGLSGVNYEECGEEFENALLYVCRELAKMIVKDGEGATKFMEVVVKGAKTEEDAVKASKAIVNSLLVKTAVFGGDPNWGRIVAAVGYSGADFNPEVVDVILSNYKDEVYLVKDGIPLADEGTEELKKAEEIMKSDEIKIVVDLKMGEFENVCYGCDLSYEYVRINAEYTTEGHHHHHH | soluble
MSLFITDKRVKESATALNPSMFQGLYLQDQMLKDPTYLPIYGSSELSRLDEFHPSNYFQVNNEGFTPYLVGKGGSQSLIHSLNFAAHMDQLKGKKIVFIVSPQWFIKRGSDEQHFAPNYSALQGLDLAFNDQIDPEIKKKMMKRMLRFKAVQNDAILSELYKAMVNGQTWKVNALKPAAKVYYSMLEKKDLYYSTTESSGPKRYISQSVKDKSWSELNKLADQSGKRHSGSNDFHIDNPVYKKLKPKVPKLKGKNKGRSYAVSPEYGDFEMMLDILKDAGAEPMFVTIPVNGKWYDYTGFPKKGRTDYYKKVNKQIRAKGFQVADFSGHEYDPYFMKDTIHIGWKGWVYVDKAIDEFYKTGKVTSSEGHHHHHH | not soluble
MGSDKIHHHHHHMSMKISEKKFNDRVGDGIQDSFMRGAVSSAQTRLYTNRLKAADELGNWEEWRELGEEIRQHTLENLDYYLMQLSENVSKRGGHVYFAKTKEEAAKYIQDVAKKKQAKKVVKSKSMVTEEISMNHALEEIGCEVLESDLGEYILQVDNDPPSHIIAPALHKNRTQIRDVFKEKLGYENSDDPYEMTKFVRKQLREKFMDAEIGVTGCNFAVANTGSLCLVTNEGNADLVMSIPKTQIAVMGMERMVPTMEELDVLVGLLCRSAVGQKLTSYVTVAGPIQEEEVDGPEEFHLVVVDNGRSQILGSEFRQVLQCIRCAACVNVCPVYRHVGGHSYGSIYSGPIGAVLTPLLGGYDDYKELPYASSLCGACTEACPVKIPLHDLLLKHRQVIVEQEGRAPLAEKLAMKMFSMGASSAALYKMGSKMAPAAMSPFTSGNRVSKGVGPLKNWTDIREFPAPSKERFRDWYKDHKKGGDK | not soluble
MKFQCSSCGLRMDSLHFKQEGLMNPKLTSICDICRTRNLNPEEYSNNAVSTFAQSLLYTFVGADKKQDQLNFIVKNKKARKKYEAFLQDYDGNEIARQQIKRSDFNLAVIKSEDGQNDYVPNQDITFEQNLKKMGLEINFQLNEVDFIDRERIRAKYKYRCQYCGRRGHSVDHKDPVSLSHNNSLDNLTLACAECNRIKSDMPYKLFIQLNDQISDINKKLVKYENALGTLREEFEHRRRYLAAQVHLKGIINDPELNEIRKQNKSLQDAIDSLQSDYDDLRQIRKTYFDTGWKLARIKENNDIILEHHHHHH | not soluble
MGNRSSSHYPPPPHWMHQRTSYSTTTSPYPEAKQRPIAPGAFAEPYMHHNPHHPQSKAQMRRSMISLNADSGYMGGPDSERLRQMRGSRMSLNQIDFEPAMMPPPRILIPPDAKTLKKLEKMEKKHQKLMKKLGARGIPIQMPVPPPPPMHPMYSRAISYDDLHRMHEAPEIDVRMRQRDWRTSDERRGLPTRRETQSQYVKHNYSSTNRRAELNGSLASSSPMTSSEEGGHSSDPWNTSSISSGKRDIISPPMYSSTPHHHNHHNHQQLQHHQVIKSPQPPITKTIEVKVERSEKVEQQVSEPTKRAPPTAAQTASSTSSRIQHNQTLNNSNATYAQPIIRRQPSYGSRSSSIATSQMRCDQSEIDFSWVNEEEDKLKRESKRIDSLPEFYFGMDPPPVPSDNEKENDEKRNRRKSSVLEKTAAFEIEARRNDRKEPSFLSRSSHQLLTTSEIPPADYSPLSIHTKEIGGPAERRIYRIQKQQQQHSSEDRRYRSSIAF | not soluble
